± gives the uncertainty stated by the source.
Test: self-splicing fitness, log relative to wild type (ln ratio); higher = more splicing; Tetrahymena group I intron in knt gene, E. coli kanamycin selection, DiMSum; sequences stand for … in CUCUCU…GGAGGGAAAAGUUAUCAGGCAUGCACCUGGUAGCUAGUCUUUAAACCAAUAGAUUGCAUCGGUUUAAAAGGCAAGACCGUCAAAUUGCGGGAAAGGGGUCAACAGCCGUUCAGUACCAAGUCUCAGGGGAAACUUUGAGAUGGCCUUGCAAAGGGUAUGGUAAUAAGCUGACGGACAUGGUCCUAACCACGCAGCCAAGUCCUAAGUCAACAGAUCUUCUGUUGAUAUGGAUGCAGUUCACAGACUAAAUGUCGGUCGGGGAAGAUGUAUUCUUCUCAUAAGAUAUAGUCGGACCUCUCCUUAAUGGGAGCUAGCGGAUGAAGUGAUGCAACACUGGAGCCGCUGGGAACUAAUUUGUAUGCGAAAGUAUAUUGAUUAGUUUUGGAGUACUCGUGGUCG
How it was run: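 Library with all eight P1ex-region intron nucleotides randomised, intron inside the knt kanamycin-resistance gene on pET-22b(+), in E. coli BL21(DE3). Cells grew overnight at 37°C or 30°C on LB agar with or without 25 μg/mL kanamycin (plus 100 μg/mL carbenicillin, 50 μM IPTG, 0.2% rhamnose), in six replicate transformations. Pooled colonies were amplicon-sequenced on Illumina HiSeq 2500. DiMSum fitness is the error-weighted combination of wild-type-normalised replicate fold changes, kanamycin versus none.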

Sequence	self-splicing fitness (ln) (30 °C)	self-splicing fitness (ln) (37 °C)
CAAUAGCAAUAUUACGAUUG	-3.32 ± 0.17	-1.9 ± 0.16
CAAUAGCAAUAUUACGCCAC	-2.84 ± 0.28	–
CAAUAGCAAUAUUACGCGAG	-1.76 ± 0.086	-0.754 ± 0.096
CAAUAGCAAUAUUACGCGGU	-3.88 ± 0.19	-3.12 ± 0.2
CAAUAGCAAUAUUACGCUCA	-0.892 ± 0.11	-1.73 ± 0.14
CAAUAGCAAUAUUACGGACU	-4.49 ± 0.34	-2.11 ± 0.23
CAAUAGCAAUAUUACGGAGG	-1.16 ± 0.07	-1.26 ± 0.11
CAAUAGCAAUAUUACGGAGU	-4.14 ± 0.43	-2.04 ± 0.25
CAAUAGCAAUAUUACGGGAG	-2.53 ± 0.085	-2 ± 0.09
CAAUAGCAAUAUUACGGUAA	-2.8 ± 0.14	-2.81 ± 0.18
CAAUAGCAAUAUUACGGUUC	-3.3 ± 0.48	–
CAAUAGCAAUAUUACGUACA	-3.18 ± 0.4	-1.82 ± 0.25
CAAUAGCAAUAUUACGUGGC	-3.53 ± 0.16	-2.72 ± 0.2
CACAAGCAAUAUUACGAACG	-0.561 ± 0.055	0.286 ± 0.079
CACAAGCAAUAUUACGAAGA	-2.71 ± 0.18	-2.36 ± 0.2
CACAAGCAAUAUUACGACAC	-3.12 ± 0.11	-2.59 ± 0.12
CACAAGCAAUAUUACGACAU	-3.32 ± 0.017	-1.99 ± 0.033
CACAAGCAAUAUUACGACCA	-1.19 ± 0.16	-1.05 ± 0.16
CACAAGCAAUAUUACGAGAA	-2.29 ± 0.31	-2.41 ± 0.34

Sequence	self-splicing fitness (ln) (30 °C)	self-splicing fitness (ln) (37 °C)
CACAAGCAAUAUUACGAGCG	-0.656 ± 0.099	0.331 ± 0.1
CACAAGCAAUAUUACGAGUG	-4.41 ± 0.15	-2.02 ± 0.12
CACAAGCAAUAUUACGAUGC	-4.12 ± 0.31	-2.69 ± 0.27
CACAAGCAAUAUUACGCCAC	–	-1.43 ± 0.43
CACAAGCAAUAUUACGCCGC	-2.66 ± 0.28	-2.34 ± 0.37
CACAAGCAAUAUUACGCGCC	-3.41 ± 0.26	-1.32 ± 0.16
CACAAGCAAUAUUACGCGUU	-2.55 ± 0.098	-1.3 ± 0.091
CACAAGCAAUAUUACGCUAU	-4.42 ± 0.26	-1.58 ± 0.14
CACAAGCAAUAUUACGCUCU	-3.04 ± 0.24	-1.38 ± 0.17
CACAAGCAAUAUUACGCUGA	-2.12 ± 0.12	-1.72 ± 0.12
CACAAGCAAUAUUACGGCGA	-1.3 ± 0.092	-0.406 ± 0.087
CACAAGCAAUAUUACGGCUG	-1.54 ± 0.072	-0.213 ± 0.087
CACAAGCAAUAUUACGGCUU	-3.67 ± 0.19	-2.98 ± 0.23
CACAAGCAAUAUUACGGGGA	-2.64 ± 0.11	-1.69 ± 0.1
CACAAGCAAUAUUACGGUUA	-1.01 ± 0.076	-0.918 ± 0.078
CACAAGCAAUAUUACGGUUG	-2.5 ± 0.1	-1.59 ± 0.12
CACAAGCAAUAUUACGUAGG	-1.23 ± 0.056	-0.693 ± 0.082
CACAAGCAAUAUUACGUAUA	-2.66 ± 0.13	-2.67 ± 0.16
CACAAGCAAUAUUACGUCAC	-3.24 ± 0.19	-2.62 ± 0.22

Source: the supplement of paper PMC7877785
